Test results from patent US20220323614A1, “KRAS-SPECIFIC CYCLIC PEPTIDES, COMPOSITIONS, AND METHODS OF USING AND MAKING” (Indi Molecular, Inc., priority 2021, published 2022).
Primed or numbered codes have the meaning given here. Where no end group is shown, it is not given here. [ ]: non-standard residue; d: D form. The star is where a group is joined. Az2 = aminoazidobutanoic acid, ring closure; dPhe(4-Br) = N[C@H](Cc1ccc(Br)cc1)C(=O)O; 2Nal = N[C@@H](Cc1ccc2ccccc2c1)C(=O)O; Palmitoyl = CCCCCCCCCCCCCCCC(=O)*; Tic = O=C(O)[C@@H]1Cc2ccccc2CN1; Cha = N[C@@H](CC1CCCCC1)C(=O)O; Dab = NCC[C@H](N)C(=O)O; Thz′ = not defined here; Phf = not defined here

B1: Ac-wky(2-Nal)-Lys(Pal) (peptide)
peptide: Ac-[dW][dK][dY][2Nal]K(Palmitoyl)
modifications: triazole (positions not given here); also: cyclic via triazole, ring-closing residues not given here
B2: Ac-w(Dab)yf-Lys(Pal) (peptide)
peptide: Ac-[dW][Dab][dY][dF]K(Palmitoyl)
modifications: triazole (positions not given here); also: cyclic via triazole, ring-closing residues not given here
B3: Ac-wky(4-Br-f)-Lys(Pal) (peptide)
peptide: Ac-[dW][dK][dY][dPhe(4-Br)]K(Palmitoyl)
modifications: triazole (positions not given here); also: cyclic via triazole, ring-closing residues not given here
B4: Ac-wk(4-Br-f)f-Lys(Pal) (peptide)
peptide: Ac-[dW][dK][dPhe(4-Br)][dF]K(Palmitoyl)
modifications: triazole (positions not given here); also: cyclic via triazole, ring-closing residues not given here
B5: Ac-wky(4-Cl-f)-Lys(Pal) (peptide)
peptide: Ac-[dW][dK][dY][4‑Cl‑f]K(Palmitoyl)
modifications: triazole (positions not given here); also: cyclic via triazole, ring-closing residues not given here
B6: Ac-wky(Phf)-Lys(Pal) (peptide)
peptide: Ac-[dW][dK][dY][Phf]K(Palmitoyl)
modifications: triazole (positions not given here); reading uncertain; also: cyclic via triazole, ring-closing residues not given here, printed as Ac-wky(Phf)-Lys(Pal)
B7: Ac-wky(4-F-f)-Lys(Pal) (peptide)
peptide: Ac-[dW][dK][dY][4‑F‑f]K(Palmitoyl)
modifications: triazole (positions not given here); also: cyclic via triazole, ring-closing residues not given here
B8: Ac-(Thz)kyf-Lys(Pal) (peptide)
peptide: Ac-[Thz′][dK][dY][dF]K(Palmitoyl)
modifications: triazole (positions not given here); reading uncertain; also: cyclic via triazole, ring-closing residues not given here, printed as Ac-(Thz)kyf-Lys(Pal)
B9: Ac-wkyf-Az2-Lys(Pal) (peptide)
peptide: Ac-[dW][dK][dY][dF][Az2]K(Palmitoyl)
modifications: triazole (positions not given here); also: cyclic via triazole, other ring-closing residue not given here
B10: Ac-(Tic)kyf-Lys(Pal) (peptide)
peptide: Ac-[Tic][dK][dY][dF]K(Palmitoyl)
modifications: triazole (positions not given here); also: cyclic via triazole, ring-closing residues not given here
B11: Ac-wky(Cha)-Lys(Pal) (peptide)
peptide: Ac-[dW][dK][dY][Cha]K(Palmitoyl)
modifications: triazole (positions not given here); also: cyclic via triazole, ring-closing residues not given here

target: KRAS (G12D) as expressed in G12D-mutant cancer cells (AsPC-1, SW 1990, pancreatic cancer cells) (human) (UniProt P01116); experiment: cell-based or functional assay

Going from B1 to B2, the pERK G12D (AsPC-1 at 4 µM for 12 hours) falls from 0.71 to 0.625.

Compared with B3, B4 is higher in pERK G12D (AsPC-1 at 4 µM for 12 hours): 0.606 for the first, 0.776 for the second.

Going from B5 to B6, the pERK G12D (AsPC-1 at 4 µM for 12 hours) rises from 0.8 to 1.32.

Going from B7 to B8, the pERK G12D (AsPC-1 at 4 µM for 12 hours) falls from 1.14 to 1.11.

Going from B9 to B10, the pERK G12D (AsPC-1 at 4 µM for 12 hours) rises from 0.794 to 0.974.

In the case of B11, the pERK G12D (AsPC-1 at 4 µM for 12 hours) is reported as 1.13.

target: KRAS (WT) as expressed in BxPC-3 cells (human) (UniProt P01116); experiment: cell-based or functional assay

Compared with B1, B2 is higher in pERK WT (BxPC-3 at 4 µM for 12 hours): 0.871 for the first, 0.982 for the second.

Going from B3 to B4, the pERK WT (BxPC-3 at 4 µM for 12 hours) falls from 1.09 to 0.895.

Compared with B5, B6 is lower in pERK WT (BxPC-3 at 4 µM for 12 hours): 1.05 for the first, 0.757 for the second.

First: B7
Second: B8
The pERK WT (BxPC-3 at 4 µM for 12 hours) of the first is higher: 1.71 for the first, 0.851 for the second.

Going from B9 to B10, the pERK WT (BxPC-3 at 4 µM for 12 hours) falls from 1.16 to 0.806.

For B11, the pERK WT (BxPC-3 at 4 µM for 12 hours) was 1.27.
